Data taken from patent publication US20140289906A1, “Compositions Having Dicamba Decarboxylase Activity and Methods of Use” (priority 2013, published 2014).

Test: 14C assay: 14CO2 capture from [14C]-carboxyl-labeled dicamba with IPTG-induced recombinant E. coli cells
Conditions: for Dicamba Decarboxylase Activity: IPTG-induced recombinant E. coli cells, 14CO2 from [14C]-carboxyl-labeled dicamba; for Enzymatic Detection level: dicamba decarboxylation activity

Molecule | Dicamba Decarboxylase Activity | Enzymatic Detection level
107 (protein, listed as Rhodopseudomonas palustris) MAIIDIHGHYTTAPKALEDWRNRQIAGIKDPSVMPKVSELKISDDELQASIIENQLKKMQERGSDLTVFSPRASFMAHHIGDFNVSSTWAAICNELCYRVSQLFPDNFIGAAMLPQSPGVDPKTCIPELEKCVKEYGFVAINLNPDPSGGHWTSPPLTDRIWYPIYEKMVELEIPAMIHVSTSCNTCFHTTGAHYLNADTTAFMQCVAGDLFKDFPELKFVIPHGGGAVPYHWGRFRGLAQEMKKPLLEDHVLNNIFFDTCVYHQPGIDLLNTVIPVDNVLFASEMIGAVRGIDPRTGFYYDDTKRYIEASTILTPEEKQQIYEGNARRVYPRLDAALKAKGK | No | No
8 (protein, listed as Metarhizium anisopliae) MARGKINFEEAFELPTLADSSREQAALYIAPKDLDRYIYHIKHPLGERLQLANSHGIGYTIYSLTVPGIQGIPDQSKAEQHATTVNDWIANEIKDHRDRLGAFAALSMHDAAQAAAELERCVRQHGFHGALLNNYQHAGPDGETYLFYDQPAYDVFWQKCVELDVPVYLHPAAPAGNYYKQMYAQRKYLVGPPLSFANDVSLHLLGLVTNGVFDRFPKLKVVVGHLGEHIPFDFWRISHWLEDVERPLAAGRGDVMSKKDLLYYFKNNIWVTTSGHFSTPTVRYVADYLGPERIMFSVDTPYETIENGVGWFDGEEDALTRALGGEDGYKKVARENAKKLFKLTKYHDCDA | Low | Low
10 (protein, listed as Starkeya novella) MARKIALEEHFTTPELAGKYVARPTQSDALFADIERRLADFDELRLEMMDRAEIDLMVLSVTTPGVQGVRDTGEAIRLARGANDFLAREVQKRPSRYAGFAHLAMQDAEAAATELERAVRELGFRGALINGQTNGHYLDEDQYAPFWERVQELDVPVYLHPGNMADSPAMFAHRPELGGPIWAWTAETAAHALRLVFGGTFTRFPGAKVILGHMGETLPFLLWRLDSRREFDLGEKLAPDALPSAIIKRNIAVTTSGVCDPAPLVAALQALSDDNVMFSVDYPYEDPQLASKFIETAPIGEETRAKVCHGNAERLLGL | Low | Low
99 (protein, listed as Ralstonia solanacearum) MAIIDCHGHFTTAPTALEDWRKRQIANLATPALGPSPDDLKISDDALTEAIRANQLRLMQARGSDLTIFSPRASFMAHHIGDFHTSATWAAICNALCHRVSQLFPDHFVGAAMLPQSPGVDIRTCIPELARCIVDYGFVGVNLNPDPSGGHWTSPPLSDPYWFPLYEKLVEYDVPAMIHVSTSCNACFHTTGAHYLNADTTAFMQVLTSDLFRRFPTLKFVIPHGGGAVPYHWGRFRGLAQELKTPPLQEHLLHNVFFDTCVYHQPGIDLLTRVIPVDNILFASEMIGAVRGIDPETGHPFDDTRRYIDQAHTLSAEDRHKIYEGNARRVYPRLDARLKARGR | No | No
105 (protein, Deinococcus radiodurans) MAIDFHVHLDLYPDPVAVARACEERQLTVLSVTTTPAAWRGTLALAAGRPHVWTALGFHPEVVSERAADLPWFDRYLPETRFVGEVGLDGSPSLRGTWTQQFAVFQHILRRCEDHGGRILSIHSRRAESEVLNCLEANPRSGTPILHWYSGSVTELRRAISLGCWFSVGPTMVRTQKGAALIRSMPRDRVLTETDGPFLELDGQAALPWDVKSVVEGLSKIWQIPASEVERIVKENVSRLLGTVR | No | No
104 (protein, Plasmodium Vivax) MANILQEPIDFLKKEELKNIDLSQMSKKERYKIWKRIPKCELHCHLDLCFSADFFVSCIRKYNLQPNLSDEEVLDYYLFAKGGKSLGEFVEKAIKVADIFHDYEVIEDLAKHAVFNKYKEGVVLMEFRYSPTFVAFKYNLDIELIHQAIVKGIKEVVELLDHKIHVALMCIGDTGHEAANIKASADFCLKHKADFVGFDHGGHEVDLKEYKEIFDYVRESGVPLSVHAGEDVTLPNLNTLYSAIQVLKVERIGHGIRVAESQELIDMVKEKNILLEVCPISNVLLKNAKSMDTHPIRQLYDAGVKVSVNSDDPGMFLTNINDDYEELYTHLNFTLEDFMKMNEWALEKSFMDSNIKDKIKNLYF | No | No
103 (protein, Plasmodium yoelii yoelii) MAMEIPTEEIKFLKKEDVQNIDLNGMSKKERYEIWRRIPKVELHCHLDLTFSAEFFLKWARKYNLQPNMSDDEILDHYLFTKEGKSLAEFIRKAISVSDLYRDYDFIEDLAKWAVIEKYKEGVVLMEFRYSPTFVSSSYGLDVELIHKAFIKGIKNATELLNNKIHVALICISDTGHAAASIKHSGDFAIKHKHDFVGFDHGGREIDLKDHKDVYHSVRDHGLHLTVHAGEDATLPNLNTLYTAINILNVERIGHGIRVSESDELIELVKKKDILLEVCPISNLLLNNVKSMDTHPIRKLYDAGVKVSVNSDDPGMFLSNINDNYEKLYIHLNFTLEEFMIMNNWAFEKSFVSDDVKSELKALYF | No | No
102 (protein, listed as Lactobacillus plantarum) MATKTFKTLDDFLGTHFIYTYDNGWEYEWYAKNDHTVDYRIHGGMVAGRWVTDQKADIVMLTEGIYKISWTEPTGTDVALDFMPNEKKLHGTIFFPKWVEEHPEITVTYQNEHIDLMEQSREKYATYPKLVVPEFANITYMGDAGQNNEDVISEAPYKEMPNDIRNGKYFDQNYHRLNK | No | No
106 (protein, listed as Pyrococcus horikoshii) MAGMKFIKNLHVSKLVIDSMKALINGTIYTSFNPLKKVSGLVISHGKVIYAGDSEVAKKIVELSGGEIVDLKGKYVMPAFFDSHLHLDELGMSLEMVDLRGAKSIEELIQRLKRGKGRIIFGFGWDQDELGEWPTRKELNAIDKPVFIYRKCFHVAVANDKMLELLNLTPSKDFDEDTGIIKEKSLEEARKVINERVLTVEDYVYYIKRAQEHLLDLGVKSVSFMSVNEKALRALFYLEREGKLSINVFAYVTPEVLDKLESIGLGRFQGNRLTIAGVKLFTDGSLGARTALLSKPYSDDPSTSGQLVMEREELIRITEKARSLGLDVAIHAIGDKALDVALDVFETTGFPGRIEHASLVRDDQLERVKNLKVRLSVQPHFIISDWWIVERVGEERVKWVYRFKDLMKVAELGFSTDSPIEPADPWLTVDAAVNRGKGKVKLYELTKDQALDIKDALHSYTYGSARVSLASDIGKLEPGFKAEYIILDRDPLVVK | No | No
98 (protein, Xanthomonas campestris pv.) MAIIDCHGHYTTAPAAHDAFRKAQIAHHDDPQQPAPQYPHISDDALRESIEQHQLRLLRERGADMTIFSPRASTMAHHIGNEAVSQVWTQRCNDLIARVVQLYPHTFIGVCQLPQSPGVPISHSIAELERCVNELGFVGCNLNPDPSGGHWNGVPLTDRAWYPFFEKMVELDVPAMVHVSGSCNANFHATGAHYLNADTTAFMQFLEGDLFRDFPSLRFIIPHGGGAVPYHWGRFRGLADMLGKPPLATHVMRNVFFDTCVYHQPGIDLLFEVIDIDNILFGSEMVGAVRGIDPQTGHYFDDTKRYIDALTISDADKRKVFEGNARRVYPRLDAQLRARGL | No | No
9 (protein, listed as Octadecabacter antarcticus) MATPKITFEEHFMAPGFEKHSEAFLKLIPRDQAEILTRRLGDFDGERIETMDRGGITRSIISLTGPGTQGEAVEKAVSAAQGANDFLAEKISKKPDRLGGLATLPMHDPDAAARELNRAVNDLGLQGCLVNTHTHGAYYEGTDYDPFWAEVEKLGVPFYLHPSNAYVTPHVLGGMPVLQGATWGWGVETGSHALRILFGGVFDRFPDVKLVLGHMGEALPFLRWRYDSRFGAYPMGVSLDRAPSAYFGSNILITTSGVCSHPSLIGAIGEMGADAVMFSVDYPYEDTDLAVEFIETAPLEDATRVKICHDNAARLFGMPTLAAKEGA | No | No
101 (protein, listed as Aquifex aeolicus) MAQKIALCITGASGVIYGIKLLQVLEELDFSVDLVISRNAKVVLKEEHSLTFEEVLKGLKNVRIHEENDFTSPLASGSRLVHYRGVYVVPCSTNTLSCIANGINKNLIHRVGEVALKERVPLVLLVREAPYNEIHLENMLKITRMGGVVVPASPAFYHKPQSIDDMINFVVGKLLDVLRIEHNLYKRWRG | No | No
96 (protein, Aspergillus nidulans) MAPLIVDVHTHVYPPAYMQMLRSRKTVPYVHDPSNNRDPRLIILSSDDDASIPLDQRGRPVDSSYWDINVKLSFMRQHGINCSVISLANPWLDFVEPAEAQMWAERINDDLEKTCATVNKAADPGNTLTLDQKETLFAFGALPLSAPSSESVVAEIKRLKTLEHLRGVIMGTSGLGKGLDDARLDPVWEALQETDMLMFLHPHYGLPEEAYGGPETTGRYGHVLPLALGFPLETTIAVTRMLLSGVFDRFPRLKILLAHSGGTLPFLAGRIESCILHERKFISGGGDVQGPQRSVWDVLKTNIYLDAVVYGKPGLEAAMTASGSDRLLFGTDHPFFPPLDSKDNSWPSVTTNYQAIHATFDTNSKTVADVLGGNAARILNLK | No | No
97 (protein, listed as Sphingobium sp.) MAMMIIDCHGHYTVLPKAHDEWREQQKAAFKAGQPAPPYPEISDDEIRETIEANQLRLIKERGADMTIFSPRASAMAPHVGDQSVAVPWAQACNNLIARVVDLFPETFAGVCMLPQSPEADMTSSIAELERCVNELGFIGCNLNPDPGGGHFKHPPLTDRFWYPFYEKMVELDVPAMIHVSGSCNPAMHATGAYYLAADTIAFMQLLQGNLFADFPTLRFIIPHGGGAVPYHWGRFRGLADMLKQPSLDTLLMNNVFFDTCVYHQPGINLLADVIDNKNILFGSEMVGAVRGIDPTTGHYFDDTKRYIDALDISDQERHAIFEGNTRRVFPRLDAKLKARGL | No | No
